Consider 1 molecule from patent US11643670B2, “Methods of enhancing chromosomal homologous recombination” (Massachusetts Institute of Technology, priority 2018, dated 2023).

For one test, the system named is maternal Chd2 locus. The test is described as follows: Donor-free interchromosomal homologous recombination (ICHR) in IVF-derived Chd2^R1684H/+ embryos. Format: cell-based, mouse. The method, then:
tracrRNA, crRNAs, and ssODNs were synthesized by Integrated DNA Technologies (TABLE 1). All injection mixtures were prepared in a final volume of 50 μL according to the following methodology: Using RNase-free water, reagents, and consumables, crRNA (final concentration 0.61 μM), tracrRNA (final concentration 0.61 μM), and ultrapure Tris-HCl, pH 7.39 (final concentration 10 mM, ThermoFisher) were mixed and incubated at 95° C. for 5 minutes. The mixtures were cooled to room temperature for 10 minutes on the benchtop, and then, EnGen Cas9-NLS S. pyogenes (New England Biolabs) was added to a final concentration of 30 ng/μL. The mixtures were incubated at 37° C. for 15 minutes before adding any remaining components: ssODN (final concentration 3 ng/μL or 30 ng/μL), RAD51 (Creative Biomart, final concentration 10 ng/μL). Injection mixtures were stored on ice and briefly heated to 37° C. prior to injection. For experiments utilizing RS-1, embryos were cultured in KSOM-AA (EMD Millipore MR-121-D) with […] RS-1 (Sigma) dissolved in DMSO or DMSO (Sigma, 1:1000) for 24 hours, washed, and cultured in EmbryoMax FHM HEPES Buffered Medium (Sigma) until collection for genotyping.
For experiments using wildtype recombinant proteins, the following proteins were used: RAD51 (Creative Biomart RAD51-134H), USP1/WDR48 (Creative Biomart USP1&WDR48-1067H), BCCIP (Origene TP303061), XRCC1 (TP304952), XRCC4 (Origene TP312684), DMC1 (Origene TP318311). For experiments using mutant RAD51, custom RAD51 preparations were produced by Creative Biomart according to their standard protocol for producing the wildtype RAD51 used in all other experiments. Mutant DNA sequences used for cloning are described in TABLE 2. All RAD51 mutants were modeled in human RAD51 transcript variant 4 (NCBI accession NM_001164269), as this is the transcript variant of the wildtype RAD51-134H protein used in all other experiments.
In vitro fertilization was performed using FERTIUP® Mouse Preincubation Medium and CARD MEDIA (Kyudo Company) according to the manufacturer's protocol. Non-virgin Chd2^R1684H/R1684H males that were >8 weeks old were used as sperm donors. Following IVF, embryos were cultured for 8 hours and then injected using the PNI protocol described below.
For all experiments except those described in FIG. 6, the male pronucleus was injected. Injections performed for the CPI portion of FIG. 6 were targeted to the cytoplasm. All microinjections were performed using a Narishige Micromanipulator, Nikon Eclipse TE2000-S microscope, and Eppendorf 5242 microinjector. Individual zygotes were injected with 1-2 pL of injection mixture using an “automatic” injection mode set according to needle size and adjusted for clear increase in pronuclear volume. Following injections, cells were cultured in KSOM-AA until collection for genotyping. For experiments giving rise to F0 animals, embryos were surgically implanted into pseudopregnant CD-1 females (Charles River Laboratories, Strain Code 022) 24-hours post-injection and allowed to develop normally until natural birth.
Embryos were collected at morula-to-blastocyst stage in 4 μL nuclease-free water. After collection, 4 μL of 2× embryo digestion buffer was added to each sample (final concentrations: 125 μg/mL proteinase K, 100 mM Tris-HCl pH 8.0, 100 mM KCl, 0.02% gelatin, 0.45% Tween-20, 60 μg/mL yeast tRNA) and embryos were lysed for 1 hour at 56° C. Proteinase K was inactivated via incubation at 95° C. for 10 minutes and DNA was stored at −20° C. until use.
Chd2^R1684H genotyping was performed via a two-step, nested approach. Except for experiments described in FIGS. 3A-3G, all 8 μL of embryo DNA were used as input for the initial, long round of PCR. Genotyping of mouse pups and adult animals was performed using 2 μL of purified tail DNA. For all embryo genotyping, reactions mixtures were set up in a UV-sterilized laminar flow hood using sterile reagents and filter tips to avoid contamination. […]

In a further test the test system is Chd2^R1684H locus. The test is described as follows: Genotyping of individual blastomeres of 2-cell embryos. Format: cell-based, mouse. Particulars: blastomeres collected at 24hpf, IVF strategy, co-injected with RAD51. The method, then: Zygotes were prepared by IVF as described above and cultured until 24hpf in FHM at 37° C. and 5% CO2. Two-cell embryos were transferred 10 at a time into room temperature acidified Tyrode's solution. Embryos were monitored by microscopy and were transferred back to FHM once the zona pellucida was dissolved. Individual blastomeres were collected via mechanical dissociation with a glass micropipette and transferred to 4 μL nuclease-free water. Blastomeres were then lysed and processed for genotyping as previously described.
After fertilization, the maternal and paternal pronuclei remain until the completion of S-phase, at which time the pronuclei fuse in preparation for mitosis. […] To begin to address the timing of zygotic ICHR, genotyping of individual blastomeres was performed in early 2-cell embryos generated through the IVF strategy and co-injected with RAD51. […] Because the blastomeres were collected early in the 2-cell stage, it is unlikely that all observed mosaicism resulted from editing events after the completion of mitosis. […]

B1: RAD51: recombinant human strand exchange protein RAD51 (Creative Biomart RAD51-134H), transcript variant 4 (protein, UniProt Q06609 2-339, looked up)
DNA repair protein RAD51 …: AMQMQLEANADTSVEEESFGPQPISRLEQCGINANDVKKLEEAGFHTVEAVAYAPKKELINIKGISEAKADKILAEAAKLVPMGFTTATEFHQRRSEIIQITTGSKELDKLLQGGIETGSITEMFGEFRTGKTQICHTLAVTCQLPIDRGGGEGKAMYIDTEGTFRPERLLAVAERYGLSGSDVLDNVAYARAFNTDHQTQLLYQASAMMVESRYALLIVDSATALYRTDYSGRGELSARQMHLARFLRMLLRLADEFGVAVVITNQVVAQVDGAAMFAADPKKPIGGNIIAHASTTRLYLRKGRGETRICKIYDSPCLPEAEAMFAINADGVGDAKD
Turning to B1, the “ICHR observed, share of injected embryos” value in the test with maternal Chd2 locus (PNI at ~8 hpf of Cas9/crRNA/tracrRNA, no donor, 26% in control injected embryos) was 74%. Besides, in the test with maternal Chd2 locus (compared to control embryos), the indel-to-ICHR ratio result is listed as “drastic decrease” and the overall indel rate entry is “drastic decrease”. In addition, in the test on Chd2^R1684H locus, the “mosaicism in embryos with an ICHR event in at least one cell” value is listed as 4/6.
